Data taken from the NTF2 design screens of Basanta et al. (2020).

Test: protease stability score; higher = more stable; yeast display proteolysis, trypsin and chymotrypsin;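 also: log10 excess protease needed over predicted unfolded state with 0 meaning unfolded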

Compared with “DEQEKAERLAKTAVEAYETNDPEVMRRLLPPDAEVRVGDKEIHGREENSRQVQRELDRVDRVQVSMKTVHVDGNKLNVVLELRVEHDGETDTREIVIIFDVRNGTIQAQEINIG”, “DEQELAEELFRDLTEAMKKGDPEQRKDLADEDVHQQVGDKTYHGREDNMKAMEELKRNYDSISIKLTSLSVHNGKVRIVFKVDFEHNGKTSTRRVVAHAYLQGDKVKIKKISEQ” is higher in protease stability score: -0.05 for the first, 0.749 for the second.

Going from “DEQENEKNVKDVQHAMETGDEELMLRNAPPDVRMEIGDKTLRGREEVSKEFKKFAKQIDRHSIHSIRFRGDKFEINMVVTVNGRHAVVNIELQIHNGKVNSMRVDPHDLEQQKQ” to “DEQENKEIMRRVKEAFEHNDPDMFKKLFDEDATVEVGDKSFQGRDKIKEAMTQFKNQADRVRVDSVNVRGNKVDATVTADFNGKTASFKLEITWHNGKIKHMRINPEDNKKLQG”, the protease stability score rises from -0.249 to 0.951.

Going from “DEQEQAEELAKKMMENMETGDFDKRANQADPDARMEIGDKDVRGRETIASHQRELSDHIDHANATVLEVRVSNGDVEVRMQFRVQHNGRSRQEERIINATISGDKMRIKEFTQS” to “DEQEQAKDFARQLQKVFRYGDEERARQLADKHVKVNVGDKIFHGREKVQKWIREIKNRSDKYKIDIKSIRVKNGRITIEFKAQEEFNGERRRVTVNAKAKLDNGEIRLTSVDQK”, the protease stability score rises from -0.116 to 0.128.

First: DEQERAERLMEEMVRVLHTGDEKRLQQLADPNARFTIGDTRVHGSDEFARLLREHADNADSMQFRVKSIEVEGNHINIKFSFSVDINGRTESYTANIRIVEKGDKMQFHTQDMK
Second: DEQERAQEALRRFLRVFQEGDPDRARQQADKDVQMVVGDKEYEGREQVSRAIESLRERVDEFHITVRRITVSGNRVVVDAKLKLNINGKEDDVTLKLVIDVSGDKISIKRVEVR
The protease stability score of the first is lower: 0.402 for the first, 1.12 for the second.

Going from “DEQEVREAAEVIVTGNEEQLRDNADPNVKLQVGDERYHGREHFVRMISKFQKQVDHRSVDHFHVKGDKVRINMVMHINGQHVVLQINAQIHNGRIKSMEIKVRDEKDKRILDQVEG” to “DEQHDREMVSRLKTALQHGDPDELVELADENARVEIGEKTVHGRHQIREQAKRWRERVDHVQIEDVDVQNGQARVQMTVDHNGRTRKEVVQMTAHNGTVESLRFQSQ”, the protease stability score falls from 1.76 to -0.216.

First: DEQIVHRAKEMDKAFNRGDPDLFNKMADENARVEVGDNVLNGRSDYKRYMDQVRKDLNVEIKSVHHQKRPNHARVKVDQVMNHNGQPRRRHIDIKIRAHNGTAKNIHFREDG
Second: DEQKDAERAIEALRVMLQGDDDSVRKMVDPNATLTVGDTEYKGREEFVKYARTLRRRADHFRIDTVHVEGDTAVMQAQVNVNGKTKTIRINVRAHNGRVVHVHVDPDQLKRIES
The protease stability score of the first is lower: -0.326 for the first, 0.831 for the second.

Compared with “DEQKDDKRSKDIKKQVEKGNEHEILKLFDKDAKVRVGDKVVQGRESIKDEIHHLRRRVDNIEVKEVHAQGDKVTVDVQVDVNGVQIRQVLHIQMNNGKVTDAKVEFTNEEQLRQMHG”, “DEQKDEEIRRVIENNDWTEVKELADENVKASVGDKRYHGREEMEKFWKIVHDRADHIEYQDIHVHNGQFNAQVVINVNGQELDVQITMRAENGKITNMSIHATSEEVKERIKEMFS” is higher in protease stability score: 0.099 for the first, 0.73 for the second.

First: DEQKEAEDIINTWREVLKDNDTDKARELADKHVRVVVGDKELHGREDFVRYFHEVAHRVDHIDIDVLDLTVHNGRIHFEADAVADVNGRKDTFVIRMVWQSQGDKHNMQEMHVP
Second: DEQKEMKRFANQFNSAIRHGDEKKMADLFDPNARMEVGDTSWNGRRNLEKEWKRRNETIDHARVHLQDVSVDGNSATVVFVLVENVNGEERNDVYVFVAVKHNGKIVIDHMTQK
The protease stability score of the first is lower: -0.09 for the first, 0.159 for the second.

First: DEQKERDKAKKIARNFQKNNEHRFEEMMDPNVKFVYGDKEVNGRDTYRKNLHELMTRADSVDIDHVDVRNGRVNVNLVVEVNGNRAEDRVQFTVHNGHIVKVNIDPKVMETAKS
Second: DEQKIKELLYKAAEAYINGNDELVRKLLKDDGKLEAGDYEYRGVDQVVKVAQDFKKYGVELEIKNYKYDGDRLDVEVELHLGGTTWKFTVTVQADGGKVDKVQFHFSEEARKRIQDG
The protease stability score of the first is lower: -0.326 for the first, 0.447 for the second.

Going from “DEQKLAEDLAKEIIKALETGNSHRLHELMDENARLRVGDKDYTGDHRIAKWMKHKRDRVDRVEATIQEIDADGDKVTIVIEIVFDHNGRRERVIVDARAEIRGDKVRMKELHWS” to “DEQKQAHDLLRQLDEAMRENDPDTMRDLFDKDAHVKVGDKEFRGTQKVREFNEELKRQADHFSVDVKRMETRPGHFNVQLVLHMETNGRTDHLKFRVRMRVVNGRAVVVTLHQG”, the protease stability score rises from -0.101 to 0.692.
